The results in this text go back to patent publication US20130203661A1 (AEGERION PHARMACEUTICALS, published 2013).

The target of assay [1] is T1, chimeric Leptin (Hu)-EPO (Mu) receptor presented by the 32D OBECA cell line (human; murine, UniProt P48357 22-839; P14753 250-507).
T1 sequence (looked up): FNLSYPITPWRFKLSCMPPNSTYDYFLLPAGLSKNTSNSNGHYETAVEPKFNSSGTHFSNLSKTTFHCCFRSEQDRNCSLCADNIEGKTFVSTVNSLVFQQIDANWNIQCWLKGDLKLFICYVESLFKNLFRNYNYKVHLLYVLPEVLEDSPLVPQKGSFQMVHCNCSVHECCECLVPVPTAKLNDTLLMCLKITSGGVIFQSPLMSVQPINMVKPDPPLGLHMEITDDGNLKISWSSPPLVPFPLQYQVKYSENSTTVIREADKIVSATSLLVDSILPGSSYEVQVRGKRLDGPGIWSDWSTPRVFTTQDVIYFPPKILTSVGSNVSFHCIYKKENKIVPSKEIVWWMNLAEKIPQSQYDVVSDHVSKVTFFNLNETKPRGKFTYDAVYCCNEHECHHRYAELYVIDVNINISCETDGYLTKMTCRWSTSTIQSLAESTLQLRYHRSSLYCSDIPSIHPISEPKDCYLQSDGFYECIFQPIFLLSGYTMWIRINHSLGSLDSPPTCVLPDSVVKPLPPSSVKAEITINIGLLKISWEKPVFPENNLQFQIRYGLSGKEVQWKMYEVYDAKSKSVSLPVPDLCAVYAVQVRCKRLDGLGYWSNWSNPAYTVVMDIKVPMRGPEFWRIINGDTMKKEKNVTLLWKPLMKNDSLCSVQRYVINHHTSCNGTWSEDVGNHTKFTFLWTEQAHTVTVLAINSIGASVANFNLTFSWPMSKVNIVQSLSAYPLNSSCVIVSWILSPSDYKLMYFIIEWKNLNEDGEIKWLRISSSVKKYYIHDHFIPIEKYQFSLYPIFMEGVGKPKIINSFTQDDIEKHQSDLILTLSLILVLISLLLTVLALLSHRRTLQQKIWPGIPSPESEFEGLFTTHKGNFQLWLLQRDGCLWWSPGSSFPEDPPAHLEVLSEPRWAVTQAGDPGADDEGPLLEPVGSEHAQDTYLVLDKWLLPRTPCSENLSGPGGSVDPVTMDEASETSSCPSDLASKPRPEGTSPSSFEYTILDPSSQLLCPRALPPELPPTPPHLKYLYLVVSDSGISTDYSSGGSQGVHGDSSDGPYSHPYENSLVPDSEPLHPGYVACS
As to the kind of experiment: cell-based or functional assay.

The target in assay [2] is T1, chimeric Leptin (Hu)-EPO (Mu) receptor …. As to the kind of experiment: Obeca cell binding: displacement of 125I-murine leptin from 32D OBECA cell membranes. In general terms: Loss of bound radioactivity is the signal in a displacement assay; it reports binding, not function.

B1: Seal leptin with N-terminal methionine, with amino acids 23-49 replaced with amino acids 25-51 (AB loop) of metreleptin, and with amino acids 93-119 replaced … (ligand)
chain: MPIQRVQDDTKTLIKTIITRINDISHTQSVSSKQKVTGLDFIPGLHPILTLSGMDQILATYQQILTSLQSRSVVQIANDLANLRALLRLLASAKSCHLPWASGLETLDSLGGVLEASGYSTEVVALSRLKAALQDMLRQLDRNPGC
notes: Seal-human chimeric leptin; also called Compound 47
What is called IC50 is the midpoint of a concentration-inhibition curve. Lower therefore signals higher potency. As for B1, in assay [1], the “EC50 (Obeca Stat 5 functional assay)” value stood at 0.0625 nM. The same molecule had an IC50 in assay [2] of 0.788 nM.

B2: Seal leptin with N-terminal methionine, with amino acids 23-49 replaced with amino acids 25-51 (AB loop) of metreleptin, with amino acids 93-119 replaced with … (ligand)
chain: MPIQRVQDDTKTLIKTIITRINDISHTQSVSSKQKVTGLDFIPGLHPILTLSGMDQILATYQQILTSLQSRNVIQISNDLENLRDLLHVLAFSKSCHLPWASGLETLDSLGGVLEASGYSTEVVALSRLKAALQDMLRQLDRNPGC
Take B2: the “EC50 (Obeca Stat 5 functional assay)” value in assay [1] came to 0.044 nM.

B3: Seal leptin with N-terminal methionine, and with amino acids 93-119 replaced with amino acids 95-121 (loop 3-4) of metreleptin (ligand)
chain: MPIQRVQDDTKTLIKTIITRINDISPPQGVCSRPRVAGLDFIPRVQSVRTLSGMDQILATYQQILTSLQSRSVVQIANDLANLRALLRLLASAKSCHLPWASGLETLDSLGGVLEASGYSTEVVALSRLKAALQDMLRQLDRNPGC
notes: Seal-human chimeric leptin; also called Compound 42; Cmpd 42
B3: the “EC50 (Obeca Stat 5 functional assay)” value in assay [1] amounted to 0.043 nM. This molecule came in with an IC50 in assay [2] of 2.02 nM.

B4: Seal leptin with N-terminal methionine, and with amino acids 30 and 93-119 replaced with amino acids 32 and 95-121 (loop 3-4) of metreleptin (ligand)
chain: MPIQRVQDDTKTLIKTIITRINDISPPQGVSSRPRVAGLDFIPRVQSVRTLSGMDQILATYQQILTSLQSRSVVQIANDLANLRALLRLLASAKSCHLPWASGLETLDSLGGVLEASGYSTEVVALSRLKAALQDMLRQLDRNPGC
notes: Seal-human chimeric leptin; also called Compound 49; Cmpd 49
As for B4, the “EC50 (Obeca Stat 5 functional assay)” value in assay [1] was 0.034 nM. The molecule also gave an IC50 in assay [2] of 0.105 nM.

B5: Seal leptin with N-terminal methionine, with amino acids 71-92 replaced with amino acids 73-94 (helix 3) of metreleptin, and with amino acids 93-119 replaced … (ligand)
chain: MPIQRVQDDTKTLIKTIITRINDISPPQGVCSRPRVAGLDFIPRVQSVRTLSGMDQILATYQQILTSLQSRNVIQISNDLENLRDLLHVLAFSKSCHLPWASGLETLDSLGGVLEASGYSTEVVALSRLKAALQDMLRQLDRNPGC
notes: Seal-human chimeric leptin; also called Compound 50
As for B5, the “EC50 (Obeca Stat 5 functional assay)” value in assay [1] turned out to be 0.022 nM. Further, the concentration for half-maximal inhibition (IC50) in assay [2] was found to be 0.214 nM.

B6: Seal leptin with N-terminal methionine, and with amino acids 3-22 replaced with amino acids 5-24 (helix 1) of metreleptin (ligand)
chain: MPIQKVQDDTKTLIKTIVTRINDISPPQGVCSRPRVAGLDFIPRVQSVRTLSGMDQILATYQQILTSLQSRSVVQIANDLANLRALLRLLASAKSCPVPRARGSDTIKGLGNVLRASVHSTEVVALSRLKAALQDMLRQLDRNPGC
Regarding B6, the “EC50 (Obeca Stat 5 functional assay)” value in assay [1] was found to be 0.095 nM.

B7: Seal leptin with N-terminal methionine, and with amino acids 120-141 replaced with amino acids 122-143 (helix 4) of metreleptin (ligand)
chain: MPIQRVQDDTKTLIKTIITRINDISPPQGVCSRPRVAGLDFIPRVQSVRTLSGMDQILATYQQILTSLQSRSVVQIANDLANLRALLRLLASAKSCPVPRARGSDTIKGLGNVLRASVHSTEVVALSRLQGSLQDMLWQLDLNPGC
notes: Seal-human chimeric leptin; also called Compound 44
Regarding B7, in assay [1], the “EC50 (Obeca Stat 5 functional assay)” value came out at 0.032 nM. The molecule also came in with a 50% inhibitory concentration (IC50) in assay [2] of 3.54 nM.

B8: Seal leptin with N-terminal methionine, and with amino acids 23-49 replaced with amino acids 25-51 (AB loop) of metreleptin (ligand)
chain: MPIQRVQDDTKTLIKTIITRINDISHTQSVSSKQKVTGLDFIPGLHPILTLSGMDQILATYQQILTSLQSRSVVQIANDLANLRALLRLLASAKSCPVPRARGSDTIKGLGNVLRASVHSTEVVALSRLKAALQDMLRQLDRNPGC
notes: Seal-human chimeric leptin; also called Compound 46
Consider B8, for which the “EC50 (Obeca Stat 5 functional assay)” value in assay [1] amounted to 0.042 nM. The half-inhibitory concentration (IC50) in assay [2] came to 0.479 nM.

B9: Seal leptin with N-terminal methionine, with amino acids 23-49 replaced with amino acids 25-51 (AB loop) of metreleptin, and with amino acids 120-141 replaced … (ligand)
chain: MPIQRVQDDTKTLIKTIITRINDISHTQSVSSKQKVTGLDFIPGLHPILTLSGMDQILATYQQILTSLQSRSVVQIANDLANLRALLRLLASAKSCPVPRARGSDTIKGLGNVLRASVHSTEVVALSRLQGSLQDMLWQLDLNPGC
notes: Seal-human chimeric leptin; also called Compound 40
In the case of B9, the “EC50 (Obeca Stat 5 functional assay)” value in assay [1] was determined as 0.588 nM. For the same molecule, the half-maximal inhibitory concentration (IC50) in assay [2] was 2.41 nM.

B10: Seal leptin with N-terminal methionine, and with amino acids 71-92 replaced with amino acids 73-94 (helix 3) of metreleptin, and with amino acids 23-49 … (ligand)
chain: MPIQRVQDDTKTLIKTIITRINDISHTQSVSSKQKVTGLDFIPGLHPILTLSGMDQILATYQQILTSLQSRNVIQISNDLENLRDLLHVLAFSKSCPVPRARGSDTIKGLGNVLRASVHSTEVVALSRLKAALQDMLRQLDRNPGC
notes: Seal-human chimeric leptin; also called Compound 51
B10: the “EC50 (Obeca Stat 5 functional assay)” value in assay [1] was 0.038 nM. In assay [2], this molecule yielded a 50% inhibitory concentration (IC50) of 0.119 nM.

B11: Seal leptin (ligand)
chain: PIQRVQDDTKTLIKTIITRINDISPPQGVCSRPRVAGLDFIPRVQSVRTLSGMDQILATYQQILTSLQSRSVVQIANDLANLRALLRLLASAKSCPVPRARGSDTIKGLGNVLRASVHSTEVVALSRLKAALQDMLRQLDRNPGC
notes: also called Compound 38; Cmpd 38
For the molecule B11, the “EC50 (Obeca Stat 5 functional assay)” value in assay [1] worked out at 0.019 nM. Further, the IC50 in assay [2] was 2 nM.

B12: Seal leptin with N-terminal methionine, and with amino acids 71-92 replaced with amino acids 73-94 (helix 3) of metreleptin (ligand)
chain: MPIQRVQDDTKTLIKTIITRINDISPPQGVCSRPRVAGLDFIPRVQSVRTLSGMDQILATYQQILTSLQSRNVIQISNDLENLRDLLHVLAFSKSCPVPRARGSDTIKGLGNVLRASVHSTEVVALSRLKAALQDMLRQLDRNPGC
notes: Seal-human chimeric leptin; also called Compound 41; Cmpd 41
With B12, the “EC50 (Obeca Stat 5 functional assay)” value in assay [1] turned out to be 0.028 nM. This molecule gave an IC50 in assay [2] of 0.555 nM.

B13: Seal leptin with N-terminal methionine, and with amino acids 30 and 71-92 replaced with amino acids 32 and 73-94 (helix 3) of metreleptin (ligand)
chain: MPIQRVQDDTKTLIKTIITRINDISPPQGVSSRPRVAGLDFIPRVQSVRTLSGMDQILATYQQILTSLQSRNVIQISNDLENLRDLLHVLAFSKSCPVPRARGSDTIKGLGNVLRASVHSTEVVALSRLKAALQDMLRQLDRNPGC
notes: Seal-human chimeric leptin; also called Compound 48; Cmpd 48
B13: the “EC50 (Obeca Stat 5 functional assay)” value in assay [1] was 0.039 nM. This molecule also had an IC50 in assay [2] of 0.036 nM.

B14: Seal leptin with N-terminal methionine, and with amino acids 50-65 replaced with amino acids 52-67 (helix 2) of metreleptin (ligand)
chain: MPIQRVQDDTKTLIKTIITRINDISPPQGVCSRPRVAGLDFIPRVQSVRTLSKMDQTLAVYQQILTSLQSRSVVQIANDLANLRALLRLLASAKSCPVPRARGSDTIKGLGNVLRASVHSTEVVALSRLKAALQDMLRQLDRNPGC
notes: Seal-human chimeric leptin; also called Compound 43
On to B14, for which the “EC50 (Obeca Stat 5 functional assay)” value in assay [1] was 0.054 nM. In assay [2], the concentration for half-maximal inhibition (IC50) came to 3.08 nM.

B15: Seal leptin with N-terminal methionine, and with amino acids 3-22 replaced with amino acids 5-24 (helix 1) of metreleptin, and amino acids 72-93 replaced with … (ligand)
chain: MPIQKVQDDTKTLIKTIVTRINDISPPQGVCSRPRVAGLDFIPRVQSVRTLSGMDQILATYQQILTSLQSRNVIQISNDLENLRDLLHVLAFSKSCPVPRARGSDTIKGLGNVLRASVHSTEVVALSRLKAALQDMLRQLDRNPGC
notes: Seal-human chimeric leptin; also called Compound 45
Take B15: the “EC50 (Obeca Stat 5 functional assay)” value in assay [1] is 0.029 nM. The IC50 in assay [2] was 0.527 nM.
